Reference: US20260097113A1 (Pfizer, published 2026)

Legend:
[1] = biological target: RSV A + RSV B bivalent composition (RSV subtype A; RSV subtype B); assay: AM14 Fab titration by SEC; Target cycle; 3 M 2-8°C
[2] = biological target: RSV A + RSV B bivalent composition (RSV subtype A; RSV subtype B); assay: AM14 Fab titration by SEC; High-Slow 1 cycle; 3 M 2-8°C
[3] = biological target: RSV A + RSV B bivalent composition (RSV subtype A; RSV subtype B); assay: AM14 Fab titration by SEC; Low-Fast cycle; T0 (second value)
[4] = biological target: RSV A + RSV B bivalent composition (RSV subtype A; RSV subtype B); assay: AM14 Fab titration by SEC; High-Slow 1 cycle; 1 M 40°C (second value)
[5] = biological target: RSV A + RSV B bivalent composition (RSV subtype A; RSV subtype B); assay: AM14 Fab titration by SEC; High-Slow 1 cycle; 1 M 25°C
[6] = biological target: RSV A + RSV B bivalent composition (RSV subtype A; RSV subtype B); assay: AM14 Fab titration by SEC; High-Slow 2 cycle; 3 M 2-8°C
[7] = biological target: T1, RSV F protein of subtype A comprising a polypeptide of SEQ ID NO: 1 and a polypeptide of SEQ ID NO: 2 (RSV subtype A, UniProt P11209 137-513; P03420 26-109); assay: AM14 ELISA; F5 (pH 6, 100 mM NaCl, 9.0% sucrose); 2 wk 5°C
T1 construct: Stabilized prefusion F trimer made of three F2-F1 heterodimers; Produced recombinantly in CHO cells; also called RSV A; RSVA
T1 chain 1: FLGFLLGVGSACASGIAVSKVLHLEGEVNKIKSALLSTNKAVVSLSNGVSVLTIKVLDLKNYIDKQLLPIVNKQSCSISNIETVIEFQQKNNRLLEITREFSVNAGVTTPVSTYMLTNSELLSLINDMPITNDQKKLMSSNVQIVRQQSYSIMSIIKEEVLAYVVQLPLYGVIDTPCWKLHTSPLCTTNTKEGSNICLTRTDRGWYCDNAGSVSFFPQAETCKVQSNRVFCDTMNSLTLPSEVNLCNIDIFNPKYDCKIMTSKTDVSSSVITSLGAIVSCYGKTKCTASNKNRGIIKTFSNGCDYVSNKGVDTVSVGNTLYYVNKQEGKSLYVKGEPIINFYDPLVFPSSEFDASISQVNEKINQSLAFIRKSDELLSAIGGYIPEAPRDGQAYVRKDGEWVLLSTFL
T1 chain 2: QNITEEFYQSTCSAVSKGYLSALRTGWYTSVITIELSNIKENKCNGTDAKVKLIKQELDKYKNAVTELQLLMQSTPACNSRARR

[8] = biological target: T1, RSV F protein of subtype A comprising a …; assay: AM14 ELISA; F10 (pH 7, 50 mM NaCl, 4.5% sucrose); T0
[9] = biological target: T1, RSV F protein of subtype A comprising a …; assay: AM14 ELISA; F4 (pH 6, 50 mM NaCl, 4.5% sucrose); 2 wk 5°C
[10] = biological target: T1, RSV F protein of subtype A comprising a …; assay: AM14 ELISA; F3 (pH 8, 0 mM NaCl, 9% sucrose); 2 wk 25°C
[11] = biological target: T1, RSV F protein of subtype A comprising a …; assay: AM14 ELISA; F4 (pH 6, 50 mM NaCl, 4.5% sucrose); 2 wk 25°C
[12] = biological target: T1, RSV F protein of subtype A comprising a …; assay: AM14 ELISA; F16 (pH 6, 0 mM NaCl, 0% sucrose); 2 wk 5°C
[13] = biological target: T1, RSV F protein of subtype A comprising a …; assay: AM14 ELISA; F15 (pH 6, 0 mM NaCl, 9% sucrose); 1 wk 5°C
[14] = biological target: T1, RSV F protein of subtype A comprising a …; assay: AM14 ELISA; F8 (pH 7, 50 mM NaCl, 0% sucrose); 2 wk 25°C
[15] = biological target: T1, RSV F protein of subtype A comprising a …; assay: AM14 ELISA; F15 (pH 6, 0 mM NaCl, 9% sucrose); 2 wk 25°C

**Q.** Which results are given for AM14 Fab?
**A.** Prefusion Content (%) [1]: 69%; Prefusion Content (%) [2]: 49%; Prefusion Content (%) [3]: 82%; Prefusion Content (%) [4]: 46%; Prefusion Content (%) [5]: 51%; Prefusion Content (%) [6]: 62%

B1: AM14 (trimeric prefusion specific antibody of the AM14 ELISA) (antibody, V domains shown)
VH: EVQLVESGGGVVQPGRSLRLSCAASGFSFSHYAMHWVRQAPGKGLEWVAVISYDGENTYYADSVKGRFSISRDNSKNTVSLQMNSLRPEDTALYYCARDRIVDDYYYYGMDVWGQGATVTVSS
VL: DIQMTQSPSSLSASVGDRVTITCQASQDIKKYLNWYHQKPGKVPELLMHDASNLETGVPSRFSGRGSGTDFTLTISSLQPEDIGTYYCQQYDNLPPLTFGGGTKVEIKR
notes: Antibody as used in the AM14 ELISA, detected with an HRP-labeled secondary antibody
**Q.** Which results are given for B1?
**A.** AM14 prefusion content (%), relative to standard [7]: 76%; AM14 prefusion content (%), relative to standard [8]: 104%; AM14 prefusion content (%), relative to standard [9]: 62%; AM14 prefusion content (%), relative to standard [10]: 72%; AM14 prefusion content (%), relative to standard [11]: 86%; AM14 prefusion content (%), relative to standard [12]: 67%; AM14 prefusion content (%), relative to standard [13]: 86%; AM14 prefusion content (%), relative to standard [14]: 85%; AM14 prefusion content (%), relative to standard [15]: 91%
